CN117683122A (SHENZHEN BAY LABORATORY; UNIV TSINGHUA, dated 2024)

B1: 抗体B010 (antibody, V domains shown)
VH: QVQLLDSGGGLVQPGGSLRLSCAASGFTFSSYAMHWVRQAPGKGLEWVAVISYDGSNKYYADSVKGRFTISRDNSKNTLYLQMNSLRAEDTAVYYCAQGWFDYWGQGTTVTVSS
VL: NIQMTQSPSTLSASVGDRVTITCRASQSIGPWLAWYQQKPGKAPKLLIYKASSLESGVPSRFSGSGSGTEFTLTISSLQPEDFATYHCQQYKSYPYSFGQGTKVDIKR
B2: 抗体B083 (antibody, V domains shown)
VH: EVQLLESGGGVVRPGGSLRLSCAASGFTFGDYGMSWVRQAPGKGLEWVSGINWNGGSTGYADSVKGRFTISRDNAKNSLYLQMNSLRVEDSGVYYCARYGRVPDNWGQGTMVTVSS
VL: NIQLTQSPSSLSASVGDRVTITCRASQGVNNWLAWYQQKPGKAPKLLIYAASTLESGVPSRFSGSGSATDFTLTINGLQPEDFATYYCQQAKRFPWTFGQGTKVEIKR
B3: 抗体B089 (antibody, V domains shown)
VH: EVQLLESGGGVVQPGRSLRLSCAASGFTFSSYAMHWVRQAPGKGLEWVAVISYDGSNKYYADSVKGRFTISRDNSKNTLYLQMNSLRAEDTAVYYCARFSGAYSYGYGVYWGQGTPVTVSS
VL: DIQLTQSPSFLSASVGDNVTITCRASQGIASRLAWYQQKPGKAPNLLISSSSTLQSGVPSRFTGSGYGTEFTLTMNTLQPEDSATYYCQQLNSYPLTFGGGTKVEIKR
B4: 抗体B161 (antibody, V domains shown)
VH: QVQLLESGGGLVKPGGSLRLSCAASGFTFSSYSMSWVRQAPGKGLEWVSSISGGSDYIYYADPVRGRFTISRDNAKNSVYLQMNSLRAEDTAVYYCGRGITGIFNWGQGTPVTVSS
VL: DIQLTQSPSSLSASVGDRVTITCRASQSINNYLNWYQQKPGKAPKVLIYAASSLPRGVPSRFSGSGSGTDFTLTISSLQPEDFASYYCQQSYTSPLTFGQGTKVEVKR
B5: 抗体B019 (antibody, V domains shown)
VH: QVQLLESGGTLVQPGGSLRLSCAASGFSFRTHDMNWVRQAPGKGLEWVSHISSTGSTIYYADSVKGRFTISRDNAKNSLYLQMNSLRADDTAVYYCARDRFTIFGVGPPFYYMDVWGQGTLVTVSS
VL: DIQLTQSPSSLSASVGDRVTITCRASQGISSYLAWYQQKPGKAPKLLIYAASTLQSGVPSRFSGSGSGTDFTLTISSLQPEDFATYYCQQSYSTPRTFGQGTKVEIKR
B6: 抗体B026 (antibody, V domains shown)
VH: EVQLLESGGGVVQPGNSLRLSCAASGFTFSSYNMNWVRQAPGKGLEWVSSISSRSSYIYYADSVKGRFTISRDNAKNTLYLQMSSLRSEDTAVYFCVRRNGAFDIWGQGTMVTVSS
VL: DIQMTQSPSSLSASVGDRVTITCRASQSITTYLNWYQQKPGKAPKLLIYAASSLQSGVPSRFSGSGSGTDFTLTISSLQPEDFATYYCQQSYGIPRTFGQGTKVEIKR

biological target: 重组猴痘病毒表面蛋白B6R-His (monkeypox virus, UniProt P0DTN2 20-279)

Q: B1 was tested. Which Kd did it give?
A: Its Kd is less than 1 nM.

Q: B2 was tested. Which Kd did it give?
A: The Kd was less than 1 nM.

Q: B3 was tested. Which Kd did it give?
A: Its Kd is less than 1 nM.

Q: With B4 as the binder, how does the Kd read?
A: Its Kd is less than 1 nM.

Q: With B5 as the binder, how does the Kd read?
A: Its Kd is less than 1 nM.

Q: With B6 as the binder, how does the Kd read?
A: Its Kd is less than 1 nM.
